Molecular target: serotonin receptor 1b (5-HT1b), CFP- or YFP-tagged, for FRET (human) (UniProt P28222)
Sequence of UniProt P28222 (P28222 whole entry): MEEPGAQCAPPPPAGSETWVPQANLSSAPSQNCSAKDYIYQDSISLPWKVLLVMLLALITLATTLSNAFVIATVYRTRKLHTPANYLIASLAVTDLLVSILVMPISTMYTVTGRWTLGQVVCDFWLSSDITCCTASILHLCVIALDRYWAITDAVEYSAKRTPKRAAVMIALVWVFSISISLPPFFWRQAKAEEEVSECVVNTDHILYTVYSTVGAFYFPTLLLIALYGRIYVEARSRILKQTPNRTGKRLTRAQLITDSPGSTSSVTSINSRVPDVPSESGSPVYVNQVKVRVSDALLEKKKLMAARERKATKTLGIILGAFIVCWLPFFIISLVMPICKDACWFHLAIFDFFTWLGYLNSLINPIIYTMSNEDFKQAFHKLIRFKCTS

Gi/o signaling: reduction of forskolin-induced cAMP (AlphaScreen) by 10 μM 5-HT in HEK293 co-expressing TAAR1 and 5-HT1b (50% for 5-HT1b alone): 40%
Substance: βTAAR1 (TAAR1 with the first nine amino acids of the β2-adrenoreceptor at its N-terminus), CFP- or YFP-tagged, for FRET (from UniProt P07550 1-9)

From publication PMC5857711
